Article PMC6750725

Biological target: A/equine/NY/49/73 H7N7 hemagglutinin (crystallization construct) (influenza A virus A/equine/NY/49/73 (H7N7))
Assay: SEC

“A/equine/NY/49/73 H7N7 hemagglutinin (crystallization construct) (natural protein)” gave a stoichiometry N of 3.
